Test results reported in the Immune Epitope Database (IEDB).

Key:
HLA-B*18:01 [1] = assay: IEDB peptide-MHC binding, purified MHC/competitive/radioactivity; ≥ and ≤ were set here for values at or beyond the usual limits of such assays
HLA-B*40:01 [2] = assay: as above
HLA-B*44:02 = assay: as above
HLA-B*44:03 = assay: as above
HLA-B*45:01 [3] = assay: as above
HLA-B*40:02 [4] = assay: IEDB peptide-MHC binding, purified MHC/competitive/radioactivity; filed as Kd, often an IC50 or EC50 that approximates it; ≥ and ≤ were set here for values at or beyond the usual limits of such assays; details: source organism: Plasmodium falciparum
HLA-B*40:02 [5] = assay: IEDB peptide-MHC binding, purified MHC/competitive/radioactivity; ≥ and ≤ were set here for values at or beyond the usual limits of such assays
HLA-B*18:01 [6] = assay: IEDB peptide-MHC binding, purified MHC/competitive/radioactivity; filed as Kd, often an IC50 or EC50 that approximates it; ≥ and ≤ were set here for values at or beyond the usual limits of such assays; details: source organism: Hepatitis B virus
HLA-B*45:01 [7] = assay: as above
HLA-B*40:01 [8] = assay: as above; details: source organism: Hepatitis B virus
[9] = source organism: Plasmodium falciparum
[10] = source organism: Hepatitis B virus
[11] = source organism: Human immunodeficiency virus 1
[12] = source organism: Hepatitis C virus (isolate HCV-K3a/650)

NELNYDNAGI
IC50 (HLA-B*18:01 [1]; [9]): 4.61 µM
IC50 (HLA-B*40:01 [2]; [9]): 4.13 µM
IC50 (HLA-B*44:02; [9]): 0.105 µM
IC50 (HLA-B*44:03; [9]): 0.072 µM
IC50 (HLA-B*45:01 [3]; [9]): 0.457 µM
Kd (HLA-B*40:02 [4]): ≥ 23.6 µM

AELLAACFA
IC50 (HLA-B*40:01 [2]; [10]): 0.585 µM
IC50 (HLA-B*40:02 [5]; [10]): 0.05 µM
IC50 (HLA-B*44:02; [10]): 0.332 µM
IC50 (HLA-B*44:03; [10]): 0.059 µM
IC50 (HLA-B*45:01 [3]; [10]): 0.0066 µM
Kd (HLA-B*18:01 [6]): 13.5 µM

DEFKPIVQY
IC50 (HLA-B*18:01 [1]; [9]): 0.0039 µM
IC50 (HLA-B*44:02; [9]): 0.012 µM
IC50 (HLA-B*44:03; [9]): 0.401 µM

AENLYVTVF
IC50 (HLA-B*40:01 [2]; [11]): 0.017 µM
IC50 (HLA-B*40:02 [5]; [11]): 0.0031 µM
IC50 (HLA-B*44:02; [11]): 0.039 µM
IC50 (HLA-B*44:03; [11]): 0.047 µM
IC50 (HLA-B*45:01 [3]; [11]): 0.069 µM

AELLAACF
IC50 (HLA-B*40:01 [2]; [10]): 0.734 µM
IC50 (HLA-B*40:02 [5]; [10]): 0.093 µM
IC50 (HLA-B*44:02; [10]): 0.0093 µM
IC50 (HLA-B*44:03; [10]): 0.027 µM
IC50 (HLA-B*45:01 [3]; [10]): 0.247 µM

RETVLEYLV
IC50 (HLA-B*40:01 [2]; [10]): 0.412 µM
IC50 (HLA-B*40:02 [5]; [10]): 0.036 µM
IC50 (HLA-B*44:03; [10]): 4.83 µM
IC50 (HLA-B*45:01 [3]; [10]): 0.205 µM

QEILDLWVY
IC50 (HLA-B*18:01 [1]; [11]): 0.052 µM
IC50 (HLA-B*40:01 [2]; [11]): 0.739 µM
IC50 (HLA-B*40:02 [5]; [11]): 4.52 µM
IC50 (HLA-B*44:02; [11]): 0.264 µM
IC50 (HLA-B*44:03; [11]): 0.172 µM
Kd (HLA-B*45:01 [7]; [11]): 6.26 µM

IEAEVIPA
IC50 (HLA-B*18:01 [1]; [11]): 0.061 µM
IC50 (HLA-B*40:01 [2]; [11]): 5.95 µM
IC50 (HLA-B*40:02 [5]; [11]): 0.062 µM
IC50 (HLA-B*44:02; [11]): 0.859 µM
IC50 (HLA-B*44:03; [11]): 6.4 µM
Kd (HLA-B*45:01 [7]; [11]): 0.347 µM

VELLSFLPSDF
IC50 (HLA-B*18:01 [1]; [10]): 0.414 µM
IC50 (HLA-B*40:02 [5]; [10]): 0.48 µM
IC50 (HLA-B*44:02; [10]): 0.299 µM
IC50 (HLA-B*44:03; [10]): 0.412 µM
Kd (HLA-B*40:01 [8]): 5.56 µM
Kd (HLA-B*45:01 [7]; [10]): 10.4 µM

TERQANFL
IC50 (HLA-B*18:01 [1]; [11]): 0.304 µM
IC50 (HLA-B*40:01 [2]; [11]): 0.223 µM
IC50 (HLA-B*40:02 [5]; [11]): 0.023 µM
IC50 (HLA-B*44:02; [11]): 9.05 µM
IC50 (HLA-B*44:03; [11]): 2.21 µM
Kd (HLA-B*45:01 [7]; [11]): 9.72 µM

AEAALENLV
IC50 (HLA-B*40:01 [2]; [12]): 0.245 µM
IC50 (HLA-B*40:02 [5]; [12]): 0.107 µM
IC50 (HLA-B*44:03; [12]): 0.309 µM
IC50 (HLA-B*45:01 [3]; [12]): 0.035 µM

GEIPFYGKAI
IC50 (HLA-B*40:01 [2]; [12]): 0.146 µM
IC50 (HLA-B*40:02 [5]; [12]): 0.087 µM
IC50 (HLA-B*44:03; [12]): 0.113 µM
Kd (HLA-B*45:01 [7]; [12]): 5.4 µM

NETPGIRYQY
IC50 (HLA-B*18:01 [1]; [11]): 0.179 µM
IC50 (HLA-B*40:01 [2]; [11]): ≥ 20 µM
IC50 (HLA-B*40:02 [5]; [11]): ≥ 20 µM
IC50 (HLA-B*44:02; [11]): 0.075 µM
IC50 (HLA-B*44:03; [11]): 0.062 µM
Kd (HLA-B*45:01 [7]; [11]): 10.6 µM

DEVDLYLLM
IC50 (HLA-B*18:01 [1]; [9]): 0.017 µM
IC50 (HLA-B*40:01 [2]; [9]): 2.93 µM
IC50 (HLA-B*40:02 [5]; [9]): 1.02 µM
IC50 (HLA-B*44:02; [9]): 0.107 µM
IC50 (HLA-B*44:03; [9]): 0.084 µM

RENANQLVV
IC50 (HLA-B*18:01 [1]; [9]): 0.757 µM
IC50 (HLA-B*40:01 [2]; [9]): 0.174 µM
IC50 (HLA-B*40:02 [5]; [9]): 0.02 µM
IC50 (HLA-B*44:02; [9]): 0.638 µM
IC50 (HLA-B*44:03; [9]): 0.48 µM
IC50 (HLA-B*45:01 [3]; [9]): 0.037 µM

AENLWVTVY
IC50 (HLA-B*18:01 [1]; [11]): 0.051 µM
IC50 (HLA-B*40:01 [2]; [11]): 3.37 µM
IC50 (HLA-B*40:02 [5]; [11]): 0.09 µM
IC50 (HLA-B*44:02; [11]): 0.066 µM
IC50 (HLA-B*44:03; [11]): 0.16 µM
IC50 (HLA-B*45:01 [3]; [11]): 0.068 µM

SENERGYYI
IC50 (HLA-B*18:01 [1]; [9]): 0.301 µM
IC50 (HLA-B*40:01 [2]; [9]): 3.73 µM
IC50 (HLA-B*40:02 [5]; [9]): 0.227 µM
IC50 (HLA-B*44:02; [9]): 0.15 µM
IC50 (HLA-B*44:03; [9]): 0.091 µM
IC50 (HLA-B*45:01 [3]; [9]): 0.336 µM

WEFVNTPPL
IC50 (HLA-B*18:01 [1]; [11]): 0.0059 µM
IC50 (HLA-B*40:01 [2]; [11]): 0.0025 µM
IC50 (HLA-B*40:02 [5]; [11]): 0.0086 µM
IC50 (HLA-B*44:02; [11]): 0.072 µM
IC50 (HLA-B*44:03; [11]): 0.378 µM
Kd (HLA-B*45:01 [7]; [11]): 5.21 µM
